Results as given in the nanobody polyreactivity screen of Harvey et al. (2022).

assay: yeast display, Sf9 membrane polyspecificity reagent, FACS + sequencing; frameworks hold sequencing errors
How it was run: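 In a synthetic yeast display library (Saccharomyces cerevisiae BJ5465), nanobody expression was induced with galactose for 36–48 hours. FACS gates were set low and high (top ~1%) using anti-HA fluorescence for expression and streptavidin fluorescence for binding of the Sf9 membrane reagent. Each polyreactivity label is drawn from the gate of origin.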

Row | Sequence | polyreactivity (PSR sort gate)
1 | QVQLVESGGGFVQAGGSLRLSCAASGFTFGYYTMGWYRQAPGKERELVAAITYRGGRTYYADSVKGRFTISRDNAKNTVYLQLNSLKPEATAVYYGAARLLGKTGRTDSGAEGDYWGQGTQVTVSS | high polyreactivity
2 | QVQLVESGGGFVQAGGSLRLSCAASGFTFYKYAMGWYRQAPGQERELVAAITRGGGSTYYADSVKGRFTISRDHAQNPVYLQKNRLIPEDPAVYYCNVLYGYGTDVSRVDYWGQGTQVTVSS | high polyreactivity
3 | QVQLVESGGGFVQAGGSLRLSCAASGITFYSNAMGWYRQAPGKERELGAAISTTGGRTYYADSVKRRFTISRDNAKNTVYLHMNSLKPEDTAVYYCTKAWGRGSLTEPYDYWGQGTQVTVSS | high polyreactivity
4 | QVQLVESGGGFVQAGGSLRLSCAASGRICGYYAMGWFRQAPGKERELVAAISSSGGSTYYADSVKGRFTISRDTAKNTVYLQINSQKPEYTAVYYCNVDWYDNGYGGYDYWRQGTQVTVSS | low polyreactivity
5 | QVQLVESGGGFVQAGGSLRLSCAASGRIFGPYAMGWYRQAPGKERELVAVITNSGSTNYADSVKGRFTISRDNAKNTVYLQMNSLKPEDTAVYYCNRVEGGAYGSNFDYWGQVTQVTVSS | high polyreactivity
6 | QVQLVESGGGFVQAGGSLRLSCAASGRIFKWYAMGWYIQAPGKERELVAAITSGGSTYYADSVKGRFTISRDNAKNTVYLQMNSLKPEDTAVYYCNTALTRWYNQYDYWGQGTLVTVSS | high polyreactivity
7 | QVQLVESGGGFVQAGGSLRLSCAASGRIFRTNAMGWYRQAPGKERELVAAITSSGTRTYYADSVKGRFTISRDNAKNTVYLQMNSLKPEDTAVYYCAAGGGHSMYYWGQGTQVTVSS | high polyreactivity
8 | QVQLVESGGGFVQAGGSLRLSCAASGRTIPYYAMGWYRQARGKEWELVATISTGDSTYYADSVKGRFTISRDNAKNTLYLQMNSLKPEATAVYSCAKDRYTYWSVHAFRRLDYWGKGTQVTVSS | low polyreactivity
9 | QVQLVESGGGFVQAGGSLRLSCAASGSIFYLYAMGWYRQAPGKERELVAAITSIGGSTYADSVKGRFTISRDNAKYTVYLQMNSLKPEDTAVYYCATYVAYHRGYRTYDQWGQGTQVTVSS | low polyreactivity
10 | QVQLVESGGGFVQAGGSLRLSCAASGSTCDGYSMGWYRQAPGKERELVAGISTSGGSTYYADSVKGRFTISRDNAKNTVYLQMNSLKPEDTAVYYCAAEWFDQVKDRAADYISYEYWGQGTQVTVSS | low polyreactivity
11 | QVQLVESGGGFVQAGGSLRLSCAASGSTFDGYAMGWYRQAPGKERELVAAITSSDGSTYYADSVKGRFTISRDNAKNTVYLQMNSLKPEDTAGYSCAAAPDWKDSLPPDMDYWGQGTQVTVSS | low polyreactivity
12 | QVQLVESGGGFVQAGGSLRLSCAASGSTFDYNTMGWYRQAPGKERELVAAISESGGSTYYADSVKGRFTISRDNAKNTVYLQMNSLKPEDTAVYYCAADTIGYHYWYDYWGQGTQVTVSS | low polyreactivity
13 | QVQLVESGGGFVQAGGSLRLSCAASGSTFSYYAMGWYRQAPGKERELVAAINWRGTNTYYADSVKGRFTISRDNAKNTVYLQMNSLKPEDTAVYYCNKESYRSSSPYNYWGQGTQVTVSS | high polyreactivity
14 | QVQLVESGGGFVQAGGSLRLSSAASGINFYRKTMGWYRQAPGKERELVASISRGGSTYYADSVKGRFTISRDNAKNTVYLQMNILKPEDTAVYYCSTSGQQYYSRNFDYWGQGTQVTVSS | low polyreactivity
15 | QVQLVESGGGFVQSGGSLRLSCAASGITFRYYTMGWYRQPPRKERELDAVISWSGGSTYYADSVKGRFTISRDNAKNTVYLQRNSLKPEDTAVYYCAAVRRISRYDYWGQGTQVTVSS | high polyreactivity
16 | QVQLVESGGGIDQAGGSLRLSCAASGGTFFSNAMGWYRQAPGKERELVAGITSGGRTYYADSVKGRFTISRDNAKNTVYLQMNSLKPEDTAVDYCATRSRRTYYYYGAEGYWGQGTQVTVSS | high polyreactivity
17 | QVQLVESGGGILQAGGSLRLSCAASGFTFLGYVMGWYRQSPGKEREIVADITESGGRTYYADSVKGRFTISRDNAKNTVFLQMNSLKPEDTAVYYCAAELSYWGYYYSFDYWGHGTQVTVSS | low polyreactivity
18 | QVQLVESGGGIVPAGGSLRLSCAASGRSFYNYAMGWYRQAPGKERELVASISGIGGTTYYADSVKGRFTISRDNAKNTVYFQMNSLKPEDTAVYYCAARLYNWRRYGYWGQRTQVTVSS | high polyreactivity
19 | QVQLVESGGGIVQAGGSLLLSCAASGRIFEKYALGWYRQAPGKDRELVAAISYSGGSTYYADSVKGSFTSSRDKAKNTVYFQMNSLKPEDTAVYYCARYSRTQAYDYWGQGTQVTVSS | high polyreactivity
20 | QVQLVESGGGIVQAGGSLRFSCAASGFTFWKYTRGWYRQAPGKERELVAAINGGGGDTYADSVKGRFTISRDNAKNTVYLQMNSLKPEDTAVYYCAARYGTGTTWVQPTEMDYWGQGTQVTVSL | low polyreactivity
21 | QVQLVESGGGIVQAGGSLRISCAASGRIFSTYAMGWYRQAPGKERELVAAINKIGGSTYYADSVKGRFTISRDNAKNTVYLQMNSLKPEDTAVYYCAADAPYYPVRRYYYWGQGTQVTVSS | low polyreactivity
22 | QVQLVESGGGIVQAGGSLRLAVLPPDLPSTLNDMGWSTQAPGKERELVAAITRGGSTNSADSVKGRFTISRDNAKNTVYLQMNILKPEDTAVYYCDKDSLVDHVGGYDYWGQATQVTVSS | low polyreactivity

Row | Sequence | polyreactivity (PSR sort gate)
23 | QVQLVESGGGIVQAGGSLRLCCAASGRSFSHYAMGWSRQAPGKDRELVATITRNGGITYYADSVKWRFTISRDNAKNTVYLQMNSLKPEDTAVYYCAAGRYYNLRATHGYWGQATQVTVSS | low polyreactivity
24 | QVQLVESGGGIVQAGGSLRLICAASGSTFYPYAMGWYRQAPGKERELVAGISWSGGSTYYADSVKGRFTISRDNAKYTVYLQMNSLKPEDTAVYYCAVDVYWSVIYDYWGQGTQVTVSS | low polyreactivity
25 | QVQLVESGGGIVQAGGSLRLNSAASGITINGNAMGWYRQEPGKERQLVAAISRSSSRTYYADSVKGRFTISRDNAKNTVYLQKNSLKQEDTAVYYCAALSLNVDAPSYGYWGQGTQVTVSS | high polyreactivity
26 | QVQLVESGGGIVQAGGSLRLSCAAAGSNFTVYVMGWYRQAPGKERELVARISSDGSTNYADSVKGRFTISRDNAKNSVFLQMNSLKPEDTAVYYCNADFPFSGRRPWYNAYDYWGQGTQVTVSS | low polyreactivity
27 | QVQLVESGGGIVQAGGSLRLSCAASGFIFDAYAMGWYRQAPGKERELVAGISIGGRTIYADSVKGRFTISRDNAKNTVYLQMNSLKPEDTAVYYCAARNYRYYYGSYYRGPITNYEYWGQGTQVTVSS | low polyreactivity
28 | QVQLVESGGGIVQAGGSLRLSCAASGFIFDQNAMGWYRQAPGKERELVAAISKRGGSTYYADSVKGRFTISRDNAKNTVYLQMNSLKREDTAVYYCATRSWGPYYYGYNHWGQGTQVTVSS | high polyreactivity
29 | QVQLVESGGGIVQAGGSLRLSCAASGFTISRNTMGWYRQAPGKEREFVARISAYGGSTYYADSVKGRFTISRDNAKNSVYLQMNSLKPVDTAVYYCAAVYRRYGGSRYDYWGQGTQVTVSS | high polyreactivity
30 | QVQLVESGGGIVQAGGSLRLSCAASGGIFDSYAMGWYRQAPGKERELVADITSGGSTNYADSVKGRFTISRDNAKNTVYLQMNSLKPEDTAVYYCAKEFYYSVGVNLGDSWGQGIQVTVSS | low polyreactivity
31 | QVQLVESGGGIVQAGGSLRLSCAASGGIFDYNAMGWYRQAPGKERELVAAISGSDVSTYYADSVKGRFTISRDNAKNTVYLQMKSLKPEDTAVYYCAADAPWAYYEYDYWGQGTQVTVSS | low polyreactivity
32 | QVQLVESGGGIVQAGGSLRLSCAASGIIFQTYAKGWYRQAPGKERELVAAISRSGGSTYYADSVKGRFTISRENSKNTVYLQMNSLKPEDTAVYYCAAYGYNVNWLKGIYWGQGTQVTVSS | high polyreactivity
33 | QVQLVESGGGIVQAGGSLRLSCAASGIIFRAYAMGWSRQAPGKDRELVAAISWSGGSTYYADSVKGRFTISRDNAKNTVYLQMNSLKPEDTAVYYCAARRWKGYYYWGQGTQVNVSS | high polyreactivity
34 | QVQLVESGGGIVQAGGSLRLSCAASGITFAFYDMGWYRQAPGTERELVAAISYSGGGTYYADSVKGRFTISRDNAKNTVYLQMNSLKPEDTAVYYCAADPKTHPLFGEDYWGQGTQVTVSS | low polyreactivity
35 | QVQLVESGGGIVQAGGSLRLSCAASGITFGRNTMGWYRQAPGKERELVAAIDSGGNTYADSVKGRFTISRDNAKNTVYLQMNSLKPEDTAVYYCAVDGGEFSSYGYWGQGTQVTVSS | low polyreactivity
36 | QVQLVESGGGIVQAGGSLRLSCAASGITFVAYDMGGYRQAPGKERELVAAITWNGDRTYYADSVKGRFTISRDNAKNTVYVEMNSLKPEDTAVYDCSAYHYYYEMDYWGQGTQVTVPS | high polyreactivity
37 | QVQLVESGGGIVQAGGSLRLSCAASGITIQGYTMGWYRQEPGKERELVAAISSNGGRTYYADSVKGSFTISRDNAKNTVYLQMNSLKPEDTAVDYCAARKWRLIVDYWGEGTQVTVSS | high polyreactivity
38 | QVQLVESGGGIVQAGGSLRLSCAASGLIFFTYAMGWYSQAPGKERELVAAITTGGSTNYADSVKGRFTISRDNAKKTVYLQMNSLKPEDTAVYYCAAQRVSVLLFVRHDYWGQGTQVTVSS | low polyreactivity
39 | QVQLVESGGGIVQAGGSLRLSCAASGLIIQNNAMVWNRQAPGKERELVAAITSDGSTYADSVKGRFTISRDNAKNTVYLQMNSLKPEDTAVYYCNADGITSLPVPALDYWGQGTQVTVSS | low polyreactivity
40 | QVQLVESGGGIVQAGGSLRLSCAASGMGWYRQAPGKERELVADITSRGGSTYYADSVKGRFTISRDNAKITVYLQMNSLKPEDTAVSYCAARKRVVQFDYWGQGTQVTVSS | low polyreactivity
41 | QVQLVESGGGIVQAGGSLRLSCAASGNAMGWYRQAPGKERELVASINRSGGRTYYADSVKGRFTISRDNAKNTVYLQMNSLKPEDTAVYYCAARPHYDSDYWGQGTQVTVSS | low polyreactivity
42 | QVQLVESGGGIVQAGGSLRLSCAASGNIFFWYDMGWYRQAPGKERELVATITSSGGSTYYADSVKGRFTISRDNAKNTVYLQMNSLKPEDTAVYYCNALPYYRDDYWGQGTQVTVSS | low polyreactivity
43 | QVQLVESGGGIVQAGGSLRLSCAASGNIFHKNAMGWYRQAPGKERELVASISWSGGSTYYADSVKGRFTISRDNAKNTVYLQMNSLKPEDTAVYYCATDAFGYPGNRYALNDYWGQGTQVTVSS | low polyreactivity
